Results as given in patent publication US6960658B1, “Maspin transcriptional regulatory sequences and uses thereof” (Dana-Farber Cancer Institute, Inc., priority 1996, dated 2005).

Assays:
[1] = tested on: maspin HRE element (pBLAp1/HRE reporter) in CF3 and LNCaP cells; test: CAT assay of pBLAp1/HRE construct with or without androgen (R1881) treatment; format: cell-based, human; settings: 50 nM R1881 vs vehicle added after transfection
Method: For construction of pBLAp1/HRE, pairs of OL8 and OL9 oligos were annealed as described above. The annealed product was phosphorylated by T4 polynucleotide kinase, and ligated to the BamHI site of pBLAp1 (pBLCAT2 containing three copies of Ap1) to generate pBLAp1/HRE (FIG. 12).
Cells were plated at 1 ×106/p100 and grown to about 75% confluence. SNA was transfected by the method of modified DEAE-Dextran (Promega, Inc., Madison, Wis.). The amounts of DNAs used were: 10 μg reporter plasmid, except for PCMVCAT in which only 2 μg of DNA was used. 1 μg of pCMVβgal was used as an internal control for transfection efficiency. For the androgen treatment, 50 nM methyltrienolone.(R1881, from Du Pont-New England Nuclear, Inc., Boston, Mass.) or vehicle was added to the cultures after transfection. […] The β-galactosidase activity in the extracts was calculated as described by Swisshelm et al. (Cell Growth Differ. 5:133, 1994). Twenty units of extracts (calculated by β-galactosidase activity) were used for each CAT assay except for transfection with pCMVCAT positive control in which only 10 units of extracts were used because of high activity. […] Quantitation of acetylated […] and nonacetylated chloramphenicol was performed by cutting out the appropriate regions of the silica gel TLC plate and counting in BioFluor (DuPont, Wilmington, Del.). […]

tumor cells [2] = settings: expressed in tumor transfectants or added as recombinant maspin; Sheng et al. 1994; cited from earlier work
tumor cells [3] = settings: Sager et al. 1995; cited from earlier work

Row | Molecule | effect of R1881 treatment on HRE-mediated inhibition of promoter (CAT) activity [1] | invasion in a Boyden chamber assay (tumor cells [2]) | mobility of tumor cells (tumor cells [3])
1 | C[C@]1(O)CC[C@H]2[C@@H]3CCC4=CC(=O)CCC4=C3C=C[C@@]21C [R1881, methyltrienolone] | Little difference in inhibition |  | 
2 | Maspin: a serpin expressed in normal human mammary epithelial cells (protein, UniProt P36952 1-375, looked up) Serpin B5: MDALQLANSAFAVDLFKQLCEKEPLGNVLFSPICLSTSLSLAQVGAKGDTANEIGQVLHFENVKDVPFGFQTVTSDVNKLSSFYSLKLIKRLYVDKSLNLSTEFISSTKRPYAKELETVDFKDKLEETKGQINNSIKDLTDGHFENILADNSVNDQTKILVVNAAYFVGKWMKKFSESETKECPFRVNKTDTKPVQMMNMEATFCMGNIDSINCKIIELPFQNKHLSMFILLPKDVEDESTGLEKIEKQLNSESLSQWTNPSTMANAKVKLSIPKFKVEKMIDPKACLENLGLKHIFSEDTSDFSGMSETKGVALSNVIHKVCLEITEDGGDSIEVPGARILQHKDELNADHPFIYIIRHNKTRNIIFFGKFCSP |  | inhibits invasion | inhibit mobility of tumor cells
